# What was measured:
# [1] = molecular target: human recombinant protein HER2-ECD with his-tag (human) (UniProt P04626); test: ELISA on coated HER2-ECD, average of three independent assays
# [2] = molecular target: human recombinant protein HER2-ECD with his-tag (human) (UniProt P04626); test: ELISA on coated HER2-ECD
# Chain of RC48-VC-MMAF (VH): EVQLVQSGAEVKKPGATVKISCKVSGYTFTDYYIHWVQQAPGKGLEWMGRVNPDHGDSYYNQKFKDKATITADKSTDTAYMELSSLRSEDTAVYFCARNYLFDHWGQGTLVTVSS
# Chain of RC48-VC-MMAF (VL): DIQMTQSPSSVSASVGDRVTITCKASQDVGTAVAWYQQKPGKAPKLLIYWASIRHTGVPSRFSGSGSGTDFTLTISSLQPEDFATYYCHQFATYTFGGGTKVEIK
# Chain of RC48-mc-vc-pAB-MMAE (VH): as the sequence (VH) above
# Chain of RC48-mc-vc-pAB-MMAE (VL): as the sequence (VL) above
# Chain of humanized anti-HER2 monoclonal antibody RC48 (VH): as the sequence (VH) above
# Chain of humanized anti-HER2 monoclonal antibody RC48 (VL): as the sequence (VL) above
Substance,Kd [1],Binding affinity [2],Mole equivalent [2]
humanized anti-HER2 monoclonal antibody RC48,0.044 nM,–,–
RC48-mc-vc-pAB-MMAE,–,2.24 ng/mL,15.2
RC48-VC-MMAF,–,3.35 ng/mL,13.5
human-mouse chimeric anti-HER2 antibody cRC48,0.077 nM,–,–

# Reference: US20200289663A1
